The text below walks through data of publication PMC3991700.

The target in the data set is T1, FilR1 (Methanosaeta harundinacea 6Ac) (UniProt G7WMP6).
T1 sequence: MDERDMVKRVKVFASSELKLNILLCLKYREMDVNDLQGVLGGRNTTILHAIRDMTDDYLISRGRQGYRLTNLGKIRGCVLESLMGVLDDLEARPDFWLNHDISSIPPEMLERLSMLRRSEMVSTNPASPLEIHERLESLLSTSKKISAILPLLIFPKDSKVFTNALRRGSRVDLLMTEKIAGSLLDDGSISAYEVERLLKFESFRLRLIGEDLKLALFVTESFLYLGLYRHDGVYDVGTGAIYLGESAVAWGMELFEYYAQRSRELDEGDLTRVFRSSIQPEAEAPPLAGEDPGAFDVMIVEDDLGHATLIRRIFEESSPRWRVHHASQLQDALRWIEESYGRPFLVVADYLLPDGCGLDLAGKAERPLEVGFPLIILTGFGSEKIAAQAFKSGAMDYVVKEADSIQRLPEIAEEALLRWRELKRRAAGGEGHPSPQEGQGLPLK
The experiment in a line: EMSA. The settings on record: EMSA: 10 mM Tris-HCl pH 8.0, 50 mM KCl, 10 mM MgCl2, 1 mM DTT, 2.5% glycerol, 1% NP-40, 0.5 mM EDTA, 1 ug/uL poly dI-dC, 10 fmol (0.5 nM) biotin probe, 20 uL …. On the technique in general: Mobility shift assays separate free from complexed probe on a gel.
Take “ACCCGTTTGACCATATCCCTTTCGTCCATGTTGAGGTCCCCCTCATTTTAAGGGCCTAAATGGCGTAGATCCACGAAAGCCGGGAGCGATTCGCGATCCGACGGAACAACTCCCCAGTTATCGGCTTGATATCAGCCTCCACCCTCCAATTTCGCGAGCCCATCTCCTCGGCTTGAGTTTTTTCCTTGATTTCGCCGTATAAGTAGCTTCCGACGATCCCGATGCTGATAGAAGCTCTGAAGTTCTCATCGTACCG (double strand) [PfilR1 (filR1 promoter)]”: the binding entry is given as “binds”. With “AGATGAAACCAGAATTATCGTTGAAGATCCCTCCCTCCGAAGATCTCCGATGGATCTCATCGATGGAACCATCTGAGGAGGCGGATCGTCGTCACCGGTTCCCCACCCGCGATGGACAATTATTCGTTATACTCGGAGGGTTATCTTCATAAACCACGGACGGATGACAGTAAGGCAGGTGCGAGGCCTTCATCACCCAGTGGACGGAGAGACAATCTCGTTTTGGAGGAGGTTGAAAGGAAG (double strand) [PfilI-R2 (filI-filR2 promoter)]”, the binding entry is listed as “binds”. For the sequence “GCTAACCATGTCCATTTGCTCTCCTCCTTTTTAATTCTTGCCAAATCATAGTAATCTATGAAAAATTTGGCCAGTAACGTACTGACTATCGGTTACTGGACTTATAAAGCTTTCGAAATGGAAATGAAAGCCCCATTTTTGTTTTTTGTCCCGGTTTTAGTGAGCCCGAAAGATCTGAAATCCCCAAATAAAAGCCTGAAATATAAAAAAAACAAGGAAGAACAGTTTGGGGCGAA (double strand) [Pmtr]”, the binding result was “binds”.

Take “AATCCACCTAAACTCACCCATATTATGCCAGTTTGAAGCCTTTTAGGACCGACCGCATCACTGCTTAGCGGTAGTGATGCTAATCGATTTTCTCATAAACCTTTTATATCAGTACCTTGTGTTTAGCTCTTACGGCTAATGGAGGTAAAAAATGAGCGGCGAATTGGTG (double strand) [fpo promoter]”: the binding entry is on record as “no binding”. On to “GGTCGGAGAGGCTGAGGGCGATCCCCGTCGTCGTCCTCACCACCTCCACCAGCGACGACGACCTCCGGCGGGCCTACTCCAACCACGTCAACAGCTACCTCATCAAGCCCCTCAGCTTCGAGGACCTGAAGCGGACCGTCGAGGAGATCAAAGAGTACTGGCTTGGATGGAACCGCTCCCCCGGACCCGCGTGAAAGACCCCAGAGGTGAGCGAAACCGAGGCCTTCACCCATGACGCTGCGCC (double strand) [UfilI (internal fragment of filI)]”, for which the binding entry is “no binding”. Take “AACGGGTTCCATCTCGATATGATCAAGGGGTGGGGGGTTTATTAATAGGTTGAGGTCCCCCTCTCGAGGCCCGGAAAGGGCAAGAGATCCCCCGATAGATTTTTATCGACCGCATATTATCGAATTTTCCCCCGGCAGAGAGGCGGAGGCTTTATACCATTTTGGCATATCGAGGGTGAGTGGGTGAATCGGCATGGCGGAG (double strand) [Pacs1]”: the binding result was “binds”. As for “CCATTAGGAGCCGTCGATTCAGCTGTTTTTGATTTTCAGGATTTATACCCGGCCGATATTCCATATTTTGGAATCTATAATGATTAAAAGGCCACTAACCTTATTAATCATGAAGATTACTAATCGACATGGTCCAGTCGAGCGTTCTCTATAGACAAACGGAGAGAATGCGTGGCAGATTCTGGTTTGAAATCTCCGTATTGGAGCTGGTATCTGCCCGGGGATCTGGGGAGAGAAGAGTGCAAAATATTCGATCTTTGATTAAGGAGGGTTGAAATTGGCT (double strand) [Pacs4]”, the entry is “binds”; as for “AAACCGCCCTCCTCTCCAGCCTCTCACCATTTCAACCTGGCGGATTGAGTTCAATCTAAATGGATTTTTATCAATTTAATTGGATATCCTCCCATCAAAACATAATCGGTAATTTTTAGCATTAAATCACCGTCACGATTTCACAAACTTAAATGTATATGTGTTCTAATCAATAAACTAAACAATAATATTCTCATTATACTAGTTGCCAATCCGAAAGGGTTTTATCTTCTACATGCGACTACCGAGCAAACCAGAGTACAGAAGGAGGTCAAGC (double strand) [cdhBEA promoter]”, “no binding”; as for “AACCCCCATAAATGATAGATCCGAAAGTAATTAAATAAATCGGTCGGTCTTCGGCCGCGGGTGGAACCAGAGGATCCCATCAGCTATGAGGGGGATCGTCAGGTGGACCGCCCTTTGAAGGATCATCCATCTCCTGAGACCTCCAGACCCCGGCGAGATGGCCGTTAGTCTCCATAAGCTCTCTCCAGCTGCCGGATTCGACAAATCGCCCCCTCTCCAGGACCTGGATCATTACCGAGGAGAGGTTTTGCCC (double strand) [Pomp]”, “binds”. Next, “CCATCCCTCTCCCTCAAGATATAGGAGGGAAAAGGTGGACGCTCACTTGGCGAGCGTCACCTTCTCGATGGTAACCTTGGCGTCCTTGAGGATCAGCTTGATCCCGCCCGCTCCGCCCGCCGACATGGCAAAGGCGGGGGCAGCTCCTGCCGCCGGGGCTGCTGCTGCGGCCGGAGCCGCCGCGGCAGGTGCTCCAGGTTCCTTCGACTTCAGCTTCAGTGACAGTTTCTTGGCCATTCCTATAACCTCCTACACCCTCAAATACAGAGATACTATAAATTC (double strand) [cdhCD promoter]”: “no binding”.
